{"source": "patent CN114409788A", "about": "(WEST CHINA HOSPITAL OF SICHUAN UNIV, dated 2022)", "binders": {"B1": {"name": "单克隆抗体70B5 (抗CD38的单克隆抗体) (antibody, V domains shown)", "VH": "EVQLQQSGPELVKPGASVKISCKASGYTFTDYYMNWVKQSHGKSLEWIGDINPNNGGTSYNQKFKGKATLTVDKSSSTAYMELRSLTSEDSAVYYCARGYYSNPFDVWGTGTTVTVSS", "VL": "DIQMTQSPSSLSASLGERVSLTCRASQDIGSSLNWLQQEPDGTIKRLIYATSSLDSGVPKRFSGSRSGSDYSLTISSLESEDFVDYYCLQYASSPLTFGAGTKLELK", "notes": "also called 70B5抗体"}}, "key": {"[1]": {"biological_target": "T1, human CD38 Protein (ECD, His Tag) (human, UniProt P28907 43-300)", "T1 construct": "extracellular domain; Commercial recombinant antigen coated on the ELISA plate at 0.5 ug/ml; also called 未标记抗原; not shown: His tag", "T1 sequence (looked up)": "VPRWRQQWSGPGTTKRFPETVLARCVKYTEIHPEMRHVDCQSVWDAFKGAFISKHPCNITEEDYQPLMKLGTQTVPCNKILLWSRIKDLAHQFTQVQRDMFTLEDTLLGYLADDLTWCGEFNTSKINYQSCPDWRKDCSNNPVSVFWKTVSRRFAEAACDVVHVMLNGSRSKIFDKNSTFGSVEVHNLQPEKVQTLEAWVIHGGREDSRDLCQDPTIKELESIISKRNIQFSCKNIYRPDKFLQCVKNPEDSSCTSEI", "test": "ELISA, human CD38 ECD-His coated on plate, detection with HRP goat anti-mouse IgM, OD450"}, "[2]": {"biological_target": "T2, mono-Mac-6细胞表面的CD38 (UniProt P28907 1-300, limits assumed)", "T2 construct": "whole, on cells; also called CD38 on mono-Mac-6 cells", "T2 sequence (looked up)": "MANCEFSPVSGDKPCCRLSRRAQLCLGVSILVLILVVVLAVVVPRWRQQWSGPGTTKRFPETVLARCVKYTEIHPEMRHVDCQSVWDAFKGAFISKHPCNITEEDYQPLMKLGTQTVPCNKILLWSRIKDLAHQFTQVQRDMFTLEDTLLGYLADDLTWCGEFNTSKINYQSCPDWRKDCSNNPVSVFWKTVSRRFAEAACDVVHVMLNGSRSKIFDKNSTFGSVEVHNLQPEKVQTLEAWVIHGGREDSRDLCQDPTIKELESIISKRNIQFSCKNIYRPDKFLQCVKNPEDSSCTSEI", "test": "flow cytometry on mono-Mac-6 cells, antibody production supernatant, APC anti-IgM secondary antibody"}}, "data": [{"binder": "B1", "values": [{"measurement": "binding result", "setting": "[1]", "value": "binds"}, {"measurement": "binding result", "setting": "[2]", "value": "binds"}]}]}
